Source: patent US20260242478A1 (published 2026)

How the values were obtained:
[1] = target: T1, PSMA Fab (006 PSMA Fab); assay: clonal phage supernatant on biotinylated PSMA Fab captured on neutravidin plate, anti-M13-HRP detection;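 also: before phage were added, wells received PSMA antigen in blocking buffer or blocking buffer alone, with no wash in between, followed by a short phage incubation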
T1 construct: also called Anti-PSMA Fab
Description: (§1) Clonal phage were harvested as crude supernatants and screened via standard ELISAs. […] Prior to the addition of clonal phage. wells were incubated with blocking buffer and PSMA antigen or blocking buffer alone. Without washing or aspirating, clonal phage supernatants were then added to the wells and incubated for a short time. Wells were then washed followed by detection of bound phage using a horse radish conjugated anti-M13 antibody.

[2] = target: T1, PSMA Fab (006 PSMA Fab); assay: phage ELISA on captured PSMA Fab pre-incubated with the competitor PSMA antigen, anti-M13-HRP detection
Description: as §1

[3] = target: T2, 006 PSMA Fab; assay: clonal phage ELISA; biotinylated PSMA Fab captured on neutravidin plate, wells pre-incubated with PSMA antigen as competitor; bound phage detected with anti-M13 HRP
T2 construct: In the phage ELISA the PSMA Fab was biotinylated and captured on neutravidin coated plates; also called Anti-PSMA Fab
Description: as §1

[4] = target: T2, 006 PSMA Fab; assay: clonal phage ELISA; biotinylated PSMA Fab captured on neutravidin plate, blocking buffer alone; bound phage detected with anti-M13 HRP
Description: as §1

[5] = target: T3, PSMA Fab (006 PSMA Fab); assay: phage binding ELISA; biotinylated PSMA Fab on neutravidin plate, clonal phage supernatant, anti-M13 HRP detection;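 also: wells were preincubated with blocking buffer either containing PSMA antigen or without it before crude phage supernatant was added, briefly incubated, then washed prior to detection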
T3 construct: also called Anti-PSMA Fab; anti-PSMA Fab
Description: as §1

[6] = target: T4, Anti-PSMA Fab (biotinylated (site not stated)); assay: clonal phage ELISA on plate-captured biotinylated PSMA Fab, blocking buffer alone
T4 construct: Biotinylated PSMA Fab captured on neutravidin coated plates; also called 006 PSMA Fab

[7] = target: T4, Anti-PSMA Fab; assay: clonal phage ELISA on plate-captured biotinylated PSMA Fab, wells pre-incubated with PSMA antigen as competitor
Description: as §1

[8] = target: T5, 006 PSMA Fab (biotinylated (site not stated)); assay: clonal phage ELISA; biotinylated PSMA Fab on neutravidin plate pre-incubated with PSMA antigen as competitor, anti-M13-HRP detection
T5 construct: also called Anti-PSMA Fab

[9] = target: T5, 006 PSMA Fab; assay: clonal phage ELISA; biotinylated PSMA Fab on neutravidin plate, blocking buffer alone, anti-M13-HRP detection;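 also: crude clonal phage supernatants added without washing to wells preincubated with PSMA antigen or with blocking buffer alone, briefly incubated, then washed before bound phage detection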
Description: as §1

B1: Phage-3917 (peptide)
peptide: DRVLCTPTWMCEGF
With B1 the “Phage binding ELISA signal, Anti-PSMA Fab” value [1] was 1.01 and the “phage binding ELISA signal, Anti-PSMA Fab in the presence of PSMA” value [2] was 0.0642.

B2: Phage-3913 (peptide)
peptide: QNFHCVPQWMCDWL
With B2 the “Phage binding ELISA signal, Anti-PSMA Fab” value [1] was 1.02 and the “phage binding ELISA signal, Anti-PSMA Fab in the presence of PSMA” value [2] was 0.0986.

B3: Phage-3940 (peptide)
peptide: PLTSCVPQWMCYGF
With B3 the “Phage binding ELISA signal, Anti-PSMA Fab with PSMA antigen” value [3] was 0.0873 and the “Phage binding ELISA signal, Anti-PSMA Fab” value [4] was 0.913.

B4: Phage-3949 (peptide)
peptide: GWVGCVPLWMCEGF
For B4, the “Phage binding ELISA signal, Anti-PSMA Fab with PSMA antigen” value [3] was 0.0698 and the “Phage binding ELISA signal, Anti-PSMA Fab” value [4] was 0.878.

B5: Phage-3926 (Peptide-180 library clone) (peptide)
peptide: VERFCEPAWMCIGL
notes: Tested as clonal phage supernatant; not shown: fused to the pIII filament protein of the bacteriophage
For B5, the “Phage binding ELISA signal, Anti-PSMA Fab” value [5] was 0.972.

B6: Phage-3955 (peptide)
peptide: YERVCVPSWMCNSL
notes: tested as crude clonal phage supernatant
In the case of B6, the “Phage binding ELISA signal, Anti-PSMA Fab” value [6] is reported as 0.838 and the “phage binding ELISA signal (Anti-PSMA Fab with PSMA)” value [7] is reported as 0.0845.

B7: Phage-3934 (Peptide-180 library clone) (peptide)
peptide: DIVECRPRWMCDGF
notes: as for B5
With B7 the “Phage binding ELISA signal, Anti-PSMA Fab” value [5] was 0.936.

B8: Phage-3896 (peptide)
peptide: PDVHCVPRWMCDGL
notes: as for B6
In the case of B8, the “Phage binding ELISA signal, Anti-PSMA Fab in the presence of PSMA antigen” value [8] is reported as 0.0633 and the “Phage binding ELISA signal, Anti-PSMA Fab” value [9] is reported as 1.08.

B9: Phage-3951 (peptide)
peptide: TVRSCTPPWMCEGF
With B9 the “Phage binding ELISA signal, Anti-PSMA Fab with PSMA antigen” value [3] was 0.0856 and the “Phage binding ELISA signal, Anti-PSMA Fab” value [4] was 0.871.

B10: Phage-3956 (peptide)
peptide: DVLMCKPEWMCLGY
notes: as for B6
B10 was tested, and the “Phage binding ELISA signal, Anti-PSMA Fab” value [6] was 0.837 and the “phage binding ELISA signal (Anti-PSMA Fab with PSMA)” value [7] was 0.0628.

B11: Phage-3939 (peptide)
peptide: YARECIPQWMCGGF
In the case of B11, the “Phage binding ELISA signal, Anti-PSMA Fab with PSMA antigen” value [3] is reported as 0.0765 and the “Phage binding ELISA signal, Anti-PSMA Fab” value [4] is reported as 0.918.

B12: Phage-3938 (Peptide-180 library clone) (peptide)
peptide: MQDFCKPLWMCSGF
notes: as for B5
For B12, the “Phage binding ELISA signal, Anti-PSMA Fab” value [5] was 0.921.

B13: Phage-3948 (peptide)
peptide: LTVYCTPEWMCSGW
For B13, the “Phage binding ELISA signal, Anti-PSMA Fab with PSMA antigen” value [3] was 0.0749 and the “Phage binding ELISA signal, Anti-PSMA Fab” value [4] was 0.882.

B14: Phage-3930 (Peptide-180 library clone) (peptide)
peptide: QLLRCVPPWMCEGF
notes: as for B5
B14 was tested, and the “Phage binding ELISA signal, Anti-PSMA Fab” value [5] was 0.97.

B15: Phage-3931 (Peptide-180 library clone) (peptide)
peptide: PTIMCIPVWMCQAF
notes: as for B5
B15 was tested, and the “Phage binding ELISA signal, Anti-PSMA Fab” value [5] was 0.966.

B16: Phage-3927 (Peptide-180 library clone) (peptide)
peptide: SMQKCVPSWMCAGF
notes: as for B5
With B16 the “Phage binding ELISA signal, Anti-PSMA Fab” value [5] was 0.972.

B17: Phage-3937 (Peptide-180 library clone) (peptide)
peptide: LTPVCRPAWMCLEL
notes: as for B5
For B17, the “Phage binding ELISA signal, Anti-PSMA Fab” value [5] was 0.922.

B18: Phage-3943 (peptide)
peptide: DQVMCIPRWMCEGF
With B18 the “Phage binding ELISA signal, Anti-PSMA Fab with PSMA antigen” value [3] was 0.0676 and the “Phage binding ELISA signal, Anti-PSMA Fab” value [4] was 0.904.

B19: Phage-3929 (Peptide-180 library clone) (peptide)
peptide: TWSICEPRWMCEGF
notes: as for B5
With B19 the “Phage binding ELISA signal, Anti-PSMA Fab” value [5] was 0.97.

B20: Phage-3914 (peptide)
peptide: FGVKCEPRWMCNGF
For B20, the “Phage binding ELISA signal, Anti-PSMA Fab” value [1] was 1.02 and the “phage binding ELISA signal, Anti-PSMA Fab in the presence of PSMA” value [2] was 0.0693.

B21: Phage-3912 (peptide)
peptide: ATVRCMPMWMCHGF
For B21, the “Phage binding ELISA signal, Anti-PSMA Fab” value [1] was 1.03 and the “phage binding ELISA signal, Anti-PSMA Fab in the presence of PSMA” value [2] was 0.0901.

B22: Phage-3925 (Peptide-180 library clone) (peptide)
peptide: NERFCEPAWMCHGF
notes: as for B5
In the case of B22, the “Phage binding ELISA signal, Anti-PSMA Fab” value [5] is reported as 0.977.

B23: Phage-3923 (peptide)
peptide: IEAQCRPVWMCHGF
For B23, the “Phage binding ELISA signal, Anti-PSMA Fab” value [1] was 0.978 and the “phage binding ELISA signal, Anti-PSMA Fab in the presence of PSMA” value [2] was 0.0779.

B24: Phage-3953 (peptide)
peptide: GLPQCVPPWMCDGF
notes: as for B6
In the case of B24, the “Phage binding ELISA signal, Anti-PSMA Fab” value [6] is reported as 0.864 and the “phage binding ELISA signal (Anti-PSMA Fab with PSMA)” value [7] is reported as 0.056.
